“And” between values parts separate entries of the source, which are not always exact repeats. Equal entries are not always repeated. Non-standard residues stand in square brackets, D forms with d. Residues, ends and D or L forms follow the SMILES beside them. *: point of attachment. pNA = O=[N+]([O-])c1ccc(N*)cc1; 2Abz = Nc1ccccc1C(=O)O
What was measured:
[1] = tested on: AlgW; assay: Quenched fluorescent substrate cleavage by peptide/lipid-activated AlgW (substrate versus velocity); format: biochemical, Pseudomonas aeruginosa; conditions: three independent determinations; for Km / Vmax: substrate gradient 3.125-300 μM, Hill fit; for Km / Hill constants: Tris pH 7.5, 37°C; for Hill constants: substrate gradient; for Vmax: 25 mM Tris pH 7.5, 150 mM NaCl, 37°C, 1 h, fluorescence ex 310/em 420 nm
Description: FIG 2 Determination of enzyme apparent kinetic parameters of dual-signal-activated AlgW. (A) Activity assay of tripeptide or decapeptide-activated AlgW using the quenched fluorescent substrates Abz-VLAG-pNA, Abz-TVAW-pNA, and Abz-AAAA-pNA. All assays were placed in a buffer containing 25 mM Tris (pH 7.5) and 150 mM NaCl at 37°C for 1 h by adding 100 μM substrate, 200 nM AlgW, and 10 mM agonist peptides (tripeptide WVF or decapeptide SVRDELRWVF). (B) The apparent Michaelis-Menten parameters of AlgW cleavage quenched fluorescent substrates Abz-VLAG-pNA (100 μM) under the condition of peptide or lipid activation. (C) The activity assay of peptide or DDM activated AlgW using the saturated quenched fluorescent substrates Abz-VLAG-pNA. Under the gradient of peptide or DDM concentration,100 μM substrate and 200 nM AlgW were coincubated with or without 400 μM DDM or 10 mM agonist peptides in a buffer containing 25 mM Tris (pH 7.5) and 150 mM NaCl at 37°C for 1 h. The final assay volume of all experiments was 100 μl, and the appearance of fluorescent products was monitored at 60-s intervals at fluorescence wavelengths of λex = 310 nm and λem = 420 nm. All data points were representative of three independent determinations and were simulated with solid lines through the formula of Y = Vmax · X^h/(Km^h + X^h) or Y = Vmax · X^h/(Khalf^h + X^h). The Kcat for the AlgW trimer was calculated by Kcat = Vmax/(Etotal), (Etotal) = 200/3 nM trimers. Error bars represent the standard deviation.
(§1) For the enzyme mechanism of AlgW (30–389) and mutants, two internally quenched fluorescent peptide substrates incorporating the peptidase cleavage site of MucA/MucB, Abz-VLAG-pNA and Abz-TVAW-pNA, were designed and synthesized (GL Biochem Shanghai Ltd., China). In the intact peptide, the fluorescence of the anthraniloyl group is quenched by the P-nitroaniline (Abz is a fluorogenic group, and pNA is a quencher of fluorescence). This quenched fluorescence is liberated upon cleavage of peptide by 200 nM AlgW and mutants (200/3 nM for trimer), resulting in increased fluorescence that can then be monitored fluorometrically. Prior to the assay, all enzyme preparations were incubated with 10 mM agonist peptides (WVF or SVRDELRWVF) for 30 min at room temperature. All assays were placed in a buffer containing 25 mM Tris (pH 7.5) and 150 mM NaCl at 37°C for 1 h, and the final assay volume was 100 μl. The fluorescent degradation products were monitored at 60-s intervals at fluorescence wavelength—λex = 310 nm, λem = 420 nm ([41]). All data points were representative of three independent determinations and were simulated with solid lines with the formula Y = Vmax · X^h/(Km ^h + X^h) or Y = Vmax · X^h/(Khalf^h + X^h) or the Michaelis-Menten formula (Y = Vmax · X/[Km + X]). Substrate versus velocity was used to determine Km and Vmax, and agonists versus velocity was used to determine the half-maximal activation concentration and maximum activation rate of agonists. The fitting and calculation of data were carried out using Prism 7 (GraphPad, CA, USA).
All experiments were performed in independent biological triplicate, and the results of replicates were consistent. The fitting and calculation of data were carried out with Prism 7 (GraphPad, CA, USA). All the enzyme kinetic data points were representative of three independent determinations and were simulated with solid lines through the formula Y = Vmax · X^h/(Km^h + X^h) or Y = Vmax · X^h/(Khalf^h + X^h) or the Michaelis-Menten formula (Y = Vmax · X/[Km + X]). Substrate versus velocity was used to determine Km and Vmax, and agonists versus velocity was used to determine the half-maximal activation concentration and maximum activation rate of agonists; error bars represent the standard deviation.

[2] = tested on: CC(C)C[C@H](NC(=O)[C@@H](NC(=O)c1ccccc1N)C(C)C)C(=O)N[C@@H](C)C(=O)NCC(=O)Nc1ccc([N+](=O)[O-])cc1; assay: Fluorogenic Abz-VLAG-pNA cleavage by peptide-activated AlgW and LA loop mutants (200 nM), 25 mM Tris pH 7.5, 150 mM NaCl, 37°C, Michaelis-Menten fit.; format: biochemical
Description: Based on the identified MucA and MucB cleavage sites for AlgW ([6], [13]), self-quenching fluorogenic tetrapeptides derived from 134-VLAG-137 of MucA (Abz-VLAG-pNA), 211-TVAW-214 of MucB (Abz-TVAW-pNA), and alanine tetrapeptide (Abz-AAAA-pNA) were synthesized and subjected to real-time measurement of AlgW proteolytic activity in the presence of excessive peptides (10 mM) (Fig. 2A). Compared with the negative-control group (using Abz-AAAA-pNA substrate), both Abz-VLAG-pNA and Abz-TVAW-pNA could be efficiently cleaved by AlgW. […] Considering that MucA is the major target of AlgW, substrate Abz-VLAG-pNA and decapeptide activator SVRDELRWVF were selected to establish a real-time AlgW assay to investigate the kinetic mechanism.
as §1

[3] = target: the molecule itself; assay: crystal structure; protein mixed with peptide activator (tripeptide WVF or decapeptide …) prior to crystallization; hanging-drop vapor diffusion at 18°C; molecular replacement
[4] = tested on: AlgW and mutants; assay: Apparent activation parameters of AlgW and mutants (peptide agonist gradient); format: biochemical, Pseudomonas aeruginosa; conditions: peptide activator (decapeptide) gradient, substrate Abz-VLAG-pNA, Michaelis-Menten fit, means of three independent determinations; for EC50: read-out: Half-maximal activation concn; for Maximal cleavage activity: Tris pH 7.5, 150 mM NaCl, 37°C
Text: as §1

[5] = decapeptide SVRDELRWVF (10 mM) activated AlgW 200 nM
[6] = decapeptide SVRDELRWVF (10 mM, 30 min RT pre-incubation) activated AlgW 200 nM
[7] = tripeptide WVF (10 mM) activated AlgW 200 nM
[8] = tripeptide WVF (10 mM, 30 min RT pre-incubation) activated AlgW 200 nM

CC(C)C[C@H](NC(=O)[C@@H](NC(=O)c1ccccc1N)C(C)C)C(=O)N[C@@H](C)C(=O)NCC(=O)Nc1ccc([N+](=O)[O-])cc1 [Abz-VLAG-pNA] (H-[2Abz]VLAG-pNA)
Km [1, 5]: 50.1 ± 9.65 µM | Hill constants [1, 5]: ~1 and 0.95 ± 0.09 | Vmax [1, 6]: 187 ± 12.83 µM/min | Km [1, 7]: 14.8 ± 2.16 µM | Hill constants [1, 7]: 1.51 ± 0.29 | Vmax [1, 8]: 81.23 ± 4.02 µM/min

AlgW-ESS (103–105)A (Pseudomonas aeruginosa PAO1; E103A/S104A/S105A)
Km [2]: 123.1 ± 19.44 µM | Vmax [2]: 873 µM/min | kcat/Km [2]: 1.77e+06 ± 122000 M⁻¹ s⁻¹

AlgW-TTK (71–73)A (Pseudomonas aeruginosa PAO1; K73A/T71A/T72A)
Km [2]: 125.1 ± 19.87 µM | Vmax [2]: 1430 µM/min | kcat/Km [2]: 2.86e+06 ± 199000 M⁻¹ s⁻¹

AlgW-T71A (Pseudomonas aeruginosa PAO1; T71A)
Km [2]: 48.29 ± 6.19 µM | Vmax [2]: 154 µM/min | kcat/Km [2]: 799000 ± 33200 M⁻¹ s⁻¹

CC(C)[C@H](NC(=O)[C@@H](NC(=O)c1ccccc1N)[C@@H](C)O)C(=O)N[C@@H](C)C(=O)N[C@@H](Cc1c[nH]c2ccccc12)C(=O)Nc1ccc([N+](=O)[O-])cc1 [Abz-TVAW-pNA] (H-[2Abz]TVAW-pNA)
Km [1, 5]: 26.9 ± 1.48 µM | Hill constants [1, 5]: 1.26 and 1.26 ± 0.07 | Vmax [1, 6]: 319.5 ± 6.42 µM/min | Km [1, 7]: 25.1 ± 1.93 µM | Hill constants [1, 7]: 1.25 and 1.25 ± 0.09 | Vmax [1, 8]: 264.1 ± 7.31 µM/min

AlgW-K73A (Pseudomonas aeruginosa PAO1; K73A)
Km [2]: 247.9 ± 93.04 µM | Vmax [2]: 188 µM/min | kcat/Km [2]: 189000 ± 39700 M⁻¹ s⁻¹

AlgW-T72A (Pseudomonas aeruginosa PAO1; T72A)
Km [2]: 86.69 ± 15.8 µM | Vmax [2]: 766 µM/min | kcat/Km [2]: 2.21e+06 ± 156000 M⁻¹ s⁻¹

B1: AlgW_(52-389), periplasmic soluble domain of AlgW for crystallization (enzyme)
chain: PVSYANAVSRAAPAVANLYTTKMVSKPSHPLFDDPMFRRFFGDNLPQQKRMESSLGSAVIMSAEGYLLTNNHVTAGADQIIVALRDGRETIAQLVGSDPETDLAVLKIDLKNLPAMTLGRSDGIRTGDVCLAIGNPFGVGQTVTMGIISATGRNQLGLNTYEDFIQTDAAINPGNSGGALVDAAGNLIGINTAIFSKSGGSQGIGFAIPTKLALEVMQSIIEHGQVIRGWLGVEVKALTPELAESLGLGETAGIVVAGVYRDGPAARGGLLPGDVILTIDKQEASDGRRSMNQVARTRPGQKISIVVLRNGQKVNLTAEVGLRPPPAPAPQQKQDGGE
notes: Vector pET22b-(LEVLFQ/GP)-6xHis has a PreScission site that allows removal of the His tag; source: E. coli BL21(DE3), purified (Ni-NTA, Superdex-75 SEC)
stoichiometry N [3]: 3

B2: AlgWS227A (inactive mutant of the periplasmic soluble domain of AlgW, for crystallization) (enzyme)
chain: PVSYANAVSRAAPAVANLYTTKMVSKPSHPLFDDPMFRRFFGDNLPQQKRMESSLGSAVIMSAEGYLLTNNHVTAGADQIIVALRDGRETIAQLVGSDPETDLAVLKIDLKNLPAMTLGRSDGIRTGDVCLAIGNPFGVGQTVTMGIISATGRNQLGLNTYEDFIQTDAAINPGNAGGALVDAAGNLIGINTAIFSKSGGSQGIGFAIPTKLALEVMQSIIEHGQVIRGWLGVEVKALTPELAESLGLGETAGIVVAGVYRDGPAARGGLLPGDVILTIDKQEASDGRRSMNQVARTRPGQKISIVVLRNGQKVNLTAEVGLRPPPAPAPQQKQDGGE
notes: AlgW of Pseudomonas aeruginosa, residues 52-389 (construct for crystallization), catalytic serine S227 changed to alanine; source: E. coli BL21(DE3), purified (Ni-NTA, Superdex-75 SEC)
stoichiometry N [3]: 3

B3: AlgW-V284A (protein)
chain: VGLPRQEVHVEQAPLLSRLQEGPVSYANAVSRAAPAVANLYTTKMVSKPSHPLFDDPMFRRFFGDNLPQQKRMESSLGSAVIMSAEGYLLTNNHVTAGADQIIVALRDGRETIAQLVGSDPETDLAVLKIDLKNLPAMTLGRSDGIRTGDVCLAIGNPFGVGQTVTMGIISATGRNQLGLNTYEDFIQTDAAINPGNSGGALVDAAGNLIGINTAIFSKSGGSQGIGFAIPTKLALEVMQSIIEHGQVIRGWLGAEVKALTPELAESLGLGETAGIVVAGVYRDGPAARGGLLPGDVILTIDKQEASDGRRSMNQVARTRPGQKISIVVLRNGQKVNLTAEVGLRPPPAPAPQQKQDGGE
modifications: left off: His6, C-terminal, state not stated
EC50 [4]: 3.56 ± 0.73 µM | Maximal cleavage activity [4]: 63.13 ± 3.82 µM/min

B4: AlgW-K287A (protein)
chain: VGLPRQEVHVEQAPLLSRLQEGPVSYANAVSRAAPAVANLYTTKMVSKPSHPLFDDPMFRRFFGDNLPQQKRMESSLGSAVIMSAEGYLLTNNHVTAGADQIIVALRDGRETIAQLVGSDPETDLAVLKIDLKNLPAMTLGRSDGIRTGDVCLAIGNPFGVGQTVTMGIISATGRNQLGLNTYEDFIQTDAAINPGNSGGALVDAAGNLIGINTAIFSKSGGSQGIGFAIPTKLALEVMQSIIEHGQVIRGWLGVEVAALTPELAESLGLGETAGIVVAGVYRDGPAARGGLLPGDVILTIDKQEASDGRRSMNQVARTRPGQKISIVVLRNGQKVNLTAEVGLRPPPAPAPQQKQDGGE
modifications: left off: His6, C-terminal, state not stated
EC50 [4]: 6.53 ± 1.38 µM | Maximal cleavage activity [4]: 49.42 ± 3.59 µM/min

B5: AlgW-E285A (protein)
chain: VGLPRQEVHVEQAPLLSRLQEGPVSYANAVSRAAPAVANLYTTKMVSKPSHPLFDDPMFRRFFGDNLPQQKRMESSLGSAVIMSAEGYLLTNNHVTAGADQIIVALRDGRETIAQLVGSDPETDLAVLKIDLKNLPAMTLGRSDGIRTGDVCLAIGNPFGVGQTVTMGIISATGRNQLGLNTYEDFIQTDAAINPGNSGGALVDAAGNLIGINTAIFSKSGGSQGIGFAIPTKLALEVMQSIIEHGQVIRGWLGVAVKALTPELAESLGLGETAGIVVAGVYRDGPAARGGLLPGDVILTIDKQEASDGRRSMNQVARTRPGQKISIVVLRNGQKVNLTAEVGLRPPPAPAPQQKQDGGE
modifications: left off: His6, C-terminal, state not stated
EC50 [4]: 3.84 ± 1.09 µM | Maximal cleavage activity [4]: 57.5 ± 4.9 µM/min
